From patent publication US20220305082A1 (CENTRICSBIO, published 2022)

T1: mouse CD300c antigen (mouse)
T1 sequence (A2A7V7 whole entry, looked up): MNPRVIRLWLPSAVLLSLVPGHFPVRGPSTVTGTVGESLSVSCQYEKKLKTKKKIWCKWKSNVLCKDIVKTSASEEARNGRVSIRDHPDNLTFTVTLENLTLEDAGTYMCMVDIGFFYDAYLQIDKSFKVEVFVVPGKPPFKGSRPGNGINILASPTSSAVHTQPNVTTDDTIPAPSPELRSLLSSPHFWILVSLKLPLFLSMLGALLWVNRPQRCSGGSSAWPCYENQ

T2: CD300a antigen (12449-H08H, Sino Biological) (UniProt Q9UGN4 18-180)
T2 construct: Bought recombinant antigen
T2 sequence (looked up): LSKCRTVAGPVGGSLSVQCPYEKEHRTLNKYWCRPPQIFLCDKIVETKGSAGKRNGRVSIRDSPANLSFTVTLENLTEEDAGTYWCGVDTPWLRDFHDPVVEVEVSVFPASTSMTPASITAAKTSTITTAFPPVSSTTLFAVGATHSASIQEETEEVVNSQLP

B1: anti-CD300c monoclonal antibody SL18 (antibody, V domains shown)
VH: RVQLLESGGGLVQPGGSLRLSCAASGFTFSDYHMHWVRQAPGKGLEWVSTISSSGGYTYYAESVKSRFTISRDNSKNTLYLQMNSLRAEDTAVYYCARSIRLPLDYWGQGTLVTVSS
VL: QSVLTQPPSASGTPGQRVTISCSGNNIGSKGVHWYQQLPGTAPKLLIYEDSKRPSGVRDRFSGSKSGTSASLAISGLRSEDEADYYCQSYDSTKGVVFGGGTKLTVL
B2: anti-CD300c monoclonal antibody CL7 (antibody, V domains shown)
VH: EVQLLESGGGLVQPGGSLRLSCAASGFTFSRYAMSWVRQAPGKGLEWVSAISGSGGSTYYADSVKGRFTISRDNSKNTLYLQMNSLRAEDTAVYYCARSSQGIFDIWGQGTLVTVSS
VL: QSVLTQPPSASGTPGQRVTISCSGNNIGTRRVHWYQQLPDTAPKLLIYSKNNRPSGVPDRFSGSKSGTSASLAISGLRSEDEADYYCAAWDDSLSGPVFGGGTKLTVL
notes: Full antibody from separate heavy and light chain vectors in 293T cells
B3: anti-CD300c monoclonal antibody CL10 (antibody, V domains shown)
VH: EVQLLESGGGLVQPGGSLRLSCAASGFTFSSYGMHWVRQAPGKGLEWVSAISGSGGSTYYADSVKGRFTISRDNSKNTLYLQMNSLRAEDTAVYYCASGYGLMDVWGQGTLVTVSS
VL: QSVLTQPPSASGTPGQRVTISCTRSSGIIASNYVQWYQQLPGTAPKLLIYRNNQRPSGVPDRFSGSKSGTSASLAISGLRSEDEADYYCSSYAGNNNLVFGGGTKLTVL

Assays:
[1] = target: T1, mouse CD300c antigen; assay: cell-based or functional assay
[2] = target: T2, CD300a antigen (12449-H08H, Sino …); assay: binding ELISA with CD300a antigen
Experimental: To identify the antigen-binding ability of the anti-CD300c monoclonal antibody produced in Example 1, binding ELISA was performed. Specifically, each of the CD300c antigen (11832-H08H, Sino Biological) or CD300a antigen (12449-H08H, Sino Biological) in a coating buffer (0.1 M sodium carbonate, pH 9.0) was dispensed onto an ELISA plate at a concentration of 8 μg/mL per well, and then reaction was allowed to proceed at room temperature for 3 hours so that the antigen was bound to the plate. Washing was performed 3 times using phosphate buffered saline-Tween 20 (PBST) to remove unbound antigen, and then 300 μL of PBST supplemented with 5% bovine serum albumin (BSA) was added to each well. Reaction was allowed to proceed at room temperature for 1 hour, and washing was performed again using PBST. Then, the anti-CD300c monoclonal antibody was diluted in quadruplicate and added thereto. Reaction was allowed to proceed for 1 hour at room temperature for antigen binding. After 1 hour, washing was performed 3 times using PBST to remove unbound anti-CD300c monoclonal antibody, and then 4 μg/mL of an antibody for detection (HRP conjugated anti-Fc IgG) was added. […] Then, 2 N sulfuric acid solution was added to terminate the development, and the absorbance was measured at 450 nm to identify the antibodies that specifically bind to the CD300c antigen. […]

Row | Binder | cancer cell proliferation inhibitory effects (CT26 mouse colorectal cancer cell line, CCK-8), higher than the control group [1] | binding result [2]
1 | B1 | 38% | 
2 | B2 | 66% | no binding (tested: 0.039, 0.63, and 10 µg/mL)
3 | B3 | 15% | 
